Reference: patent US9555076B2, “Neuregulin based methods and compositions for treating cardiovascular diseases” (Zensun (Shanghai) Science & Technology, Co., Ltd., priority 2002, dated 2017)
“And” between values parts separate entries of the source, which are not always exact repeats. Equal entries are not always repeated.

Key:
[1] = test system: toxic myocarditis caused by Adriamycin in rat; experiment: Hemodynamics index, Adriamycin rat model; format: in vivo, SD rat; settings: 5 weeks later
Protocol: (§1) rhNRG-1 β was injected into the tail vein within 24 hours after the first injection of Adriamycin. During the experiment, animal survival was dynamically monitored, heart function indexes (maximal rate of pressure increase within left ventricle, […], maximal rate of pressure decrease within left ventricle, −dp/dt, systolic end pressure of left ventricle LVPmax, diastolic end pressure of left ventricle LVPmin) were monitored at the 5th week. Section was made from the heart tissue and pathological changes examined.
Hemodynamics index such as carotid artery pressure, intra-ventricular pressure. dp/dt was measured with six lead physiology recorder. Major procedure: separate the right carotid artery, ligate its distal end and block its proximal end with arterial clamps, 20 G arteriovenous indwelling needle was inserted into the carotid artery, took out the medal stylet, loosened the artery clamps, push the plastic trocar further into appropriate depth, indwelled for 10 minutes, observed the wave style recorded by the physiology recorder, after it was stable, then recorded the carotid artery pressure and push the trocar further into the left ventricle, kept in place for 15 minutes, after it was stable, then recorded the dp/dt, −dp/dt, LVPmax and LVPmin.

[2] = test system: toxic myocarditis caused by Adriamycin in rat; experiment: Survival rate, Adriamycin caused toxic myocarditis rat model; format: in vivo, SD rat; settings: Adriamycin 3.3 mg/kg iv once every week × 4, 5 weeks later
Protocol: rhNRG-1β was injected into the tail vein within 24 hours after the first injection of Adriamycin, the injection of rhNRG-1 β was carried out once daily for 10 days. Dosage was adjusted according to the body weight, volume of the drug administered was 0.2 ml/100 g.
Based on the <<Guidance Principle of New Drug Preclinical Experiment>>, 3.3 mg/kg of Adriamycin was injected into the tail vein, once per week for consecutive 4 injections, establishing Adriamycin caused toxic myocarditis rat model.
as §1
Situation of survival was recorded weekly and the survival rate of the various experimental groups was calculated. Survival rate (%)=survival animal number/number of experimental animals×100.

[3] = test system: toxic myocarditis caused by Adriamycin in rat; experiment: Heart size (heart weight/body weight, wall thickness), Adriamycin rat model; format: in vivo, SD rat; settings: Adriamycin 3.3 mg/kg iv once every week × 4, 5 weeks later
Protocol: (§2) Heart was extirpated after thoracotomy (auricle should be reserved), the heart weight was measured after dried with absorbent paper, ratio of heart weight/body weight calculated; outer diameter of the heart was measured at ½ site of the vertically standing heart; medium part of the left ventricle was crosswise cut open, maximal thickness of free wall of the left ventricle measured; the heart was fixed with 10% formaldehyde, paraffin embedded and HE stained, observation of the myocardial structure carried out under optic microscope, give out pathologic score.

[4] = test system: toxic myocarditis caused by Adriamycin in rat; experiment: Serum troponin T (cTnT) level, Adriamycin rat model; format: in vivo, SD rat; settings: Adriamycin 3.3 mg/kg iv once every week × 4, 5 weeks later
Protocol: 2 ml of arterial blood was withdrawn, serum extracted, frozen and stored at −20° C., determination of serum cTnT content was performed with electrochemistry irradiate method submitted to be carried out by Clinical Laboratory of Zhong Shan Hospital.

[5] = test system: toxic myocarditis caused by Adriamycin in rat; experiment: Myocardial pathologic scoring, Adriamycin rat model; format: in vivo, SD rat; settings: Adriamycin 3.3 mg/kg iv weekly × 4, 5 weeks later
Protocol: as §2
Scoring could be performed between grade 1 and grade 2 or between grade 2 and grade 3, e.g. grade 1.5, grade 2.5 etc. 6.3.3.3 Determination of Hemodynamics Index

Rhesus = Rhesus long-term toxicity study, 3 weeks iv plus 3 weeks convalescence; settings: for heart rate in conscious animals (electrocardiography): every drug taken group
[6] = rat, Adriamycin 3.3 mg/kg iv once every week × 4
[7] = survived rat, Adriamycin 3.3 mg/kg iv weekly × 4

COc1cccc2c1C(=O)c1c(O)c3c(c(O)c1C2=O)C[C@@](O)(C(=O)CO)C[C@@H]3O[C@H]1C[C@H](N)[C@H](O)[C@H](C)O1 [Adriamycin, reference compound]
LVPmax [1, 6]: 106.1 ± 21.2 mmHg
dp/dt [1, 6]: 2674 ± 446 mmHg/s
LVPmin ([1]; rat, Adriamycin 3.3 mg/kg iv once every week × 4, in mmHg): −10.0 ± 4.7
−dp/dt ([1]; rat, Adriamycin 3.3 mg/kg iv once every week × 4, in mmHg/s): −2141 ± 596
LVPmax as % of the normal value [1, 7]: 58%
LVPmin as % of the normal value [1, 7]: 37%
dp/dt as % of the normal value [1, 7]: 43%
−dp/dt as % of the normal value [1, 7]: 47%
survival rate [2]: 15%
Heart weight/body weight [3]: 0.0031 ± 0.0001^
heart circumference [3]: 30.6 ± 0.1 mm
thickness of left ventricular wall [3]: 1.73 ± 0.16^ mm
cTnT [4]: 0.2 ng/mL and 0.205 ± 0.072 ng/mL
relative morbidity rate [5]: 100%

B1: rhNRG-1 β: Recombinant human neuregulin fragment of 61 amino acid (SEQ ID NO:4), 3 disulfide bonds, expressed in E. coli (protein, listed as Homo sapiens)
chain: SHLVKCAEKEKTFCVNGGECFMVKDLSNPSRYLCKCPNEFTGDRCQNYVMASFYKAEELYQ
modifications: Human neuregulin beta-2 fragment
bone marrow smear (Rhesus; 7.5, 15, 75 μg/kg/d iv 3 weeks): No significant toxic pathologic changes
echocardiogram (Rhesus; 7.5, 15, 75 μg/kg/d iv 3 weeks): no significant abnormality in echocardiogram
fundus examination (Rhesus; 7.5, 15, 75 μg/kg/d iv 3 weeks): No abnormal changes
hematological, biochemistry examination, urine and fecal testing (Rhesus; 7.5, 15, 75 μg/kg/d iv 3 weeks): no significant toxicological changes
organ weight (Rhesus; 7.5, 15, 75 μg/kg/d iv 3 weeks): No abnormal changes in organ weight
body temperature (Rhesus; all animals, prior to and after the drug administration): no significant changes of body temperature
site of drug injection (Rhesus; drug taken groups): mild paleness, hardening of regional skin and vessels
general symptoms, gastrointestinal (Rhesus; each drug taken group, 1 week after the beginning of drug administration): Vomiting, nausea and salivation occurred in part of the animals
heart rate in conscious animals (electrocardiography) (Rhesus; 3-week of drug administration): significant reduction of heart rate
heart rate in conscious animals (electrocardiography) (Rhesus; 10-day of drug administration): no significant deceleration of heart rate
myocardium pathohistology (Rhesus; high dosage 75 μg/kg/d iv 3 weeks): could cause vacuole in the cytoplasma of myocardium
food ingestion (Rhesus; high dosage group 75 μg/kg/d): reduced significantly
body weight (Rhesus; high dosage group 75 μg/kg/d, self-comparison prior to and after drug): lowered markedly
recovery of hydrocephalus (Rhesus; high dosage group, 3 weeks after drug withdrawal): did not recover entirely
dosage level that did not cause pericardial effusion and hydrocephalus (Rhesus; iv daily 3 weeks, 3-week's convalescent period): 7.5 µg/kg/day
